From patent publication US20250361298A1 (CARTOGRAPHY BIOSCIENCES, published 2025)
Starred links: 1 amine or outer side, 2 acyl side, 3 side chain; linkers in the order of their positions; H or OH if unused. Positions of bridges follow the written chain, without caps; N, C: chain ends. Primed or numbered codes have the meaning given here. PEG2′ = PEG2 spacer at the C-terminus, followed by 3-mercaptopropionate; CH2 = C([*:1])[*:2]

T1: LY6G6D cyclic peptide Ac-RDC*YLGDLC*NS-PEG2-3-mercaptopropionate (bridge 3-9 via CH2; not fully specified; printed as Ac-RDC*YLGDLC*NS-PEG2-3-mercaptopropionate)
T1 construct: Represents the most membrane-proximal stretch of LY6G6D; also called octomer cyclic peptide
T1 peptide: Ac-RDCYLGDLCNS-{PEG2′-3‑mercaptopropionate}

T2: Human LY6G6D ectodomain fused to mouse IgG2A Fc (monovalent display, knob-in-hole) (human, biotinylated for BLI capture (site not stated))
T2 chain: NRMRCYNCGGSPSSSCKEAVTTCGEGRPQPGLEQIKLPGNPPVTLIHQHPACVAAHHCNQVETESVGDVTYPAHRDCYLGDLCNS

B1: CB21-471 (antibody, V domains shown)
VH: EVQLVESGGGVVQPGRSLRLSCAASGFTFSSYGMHWVRQVPGKGLEWVAVIWYDGSNKDYVDSVKGRFTISRDNSKNTLYLQMNSLRAEDTAVYYCARPGEGDYWGQGTLVTVSS
VL: DIQMTQSPSSLSASVGDRVTITCRASQGIRNDFGWYQQKPGKAPKRLIYGASSLQSGVPSRFSGSGSGTEFTLTISSLQPEDFATYYCLQQNSYPWTFGQGTKVEIK
notes: Human Fc formats; monovalent antibody in BLI
B2: CB21-477 (antibody, V domains shown)
VH: EVQLVESGGGVVQPGRSLRLSCAASGFTFSSYGMHWVRQAPGKGLEWVAVIWYDGSNKDYADSVKGRFTISRDNSKNTLYLQMNSLRAEDTAVYYCARPGEGDYWGQGTLVTVSS
VL: DIQMTQSPSSLSASVGDRVTITCRASQGIRNDLGWYQQKPGRAPKRLIYAASSLQSGVPSRFSGSGSGTEFTLTISSLQPEDFATYYCLQQNSYPWTFGQGTKVEIK
notes: as for B1
B3: CB21-499 (antibody, V domains shown)
VH: EVQLVESGGGVVQPGRSLRLSCAASGFTFSSYGMHWVRQAPGKGLEWVAVIWYDGSNKDYADSVKGRFTISRDNSKNTLYLQMNSLRAEDTAIYYCARPGEGDYWGQGTLVTVSS
VL: DIQMTQSPSSLSASVGDRVTITCRASQGVRNDFGWFQQKPGKAPKRLIYGASSLQSGVPSRFSGSGSGTEFTLTISSLQPEDFATYYCLQQNSYPWTFGQGTKLEIK
notes: as for B1
B4: CB21-512 (antibody, V domains shown)
VH: EVQLVESGGGVVQPGRSLRLSCAASGFTFSSYGMHWVRQAPGKGLEWVAVLWYDGINKNYADSVKGRFAISRDNSKNTLYLQMNSLRVEDTAVYFCVRVQGDYWGQGTLVTVSS
VL: DIQMTQSPSSLSASVGDRVTITCRASQGIRNDLTWYQQKPGKAPKRLIYDTSSLQSGVPSRFSGSRSGTEFTLTISSLQPEDFASYFCLQHNIYPFTFGQGTKLEIK
notes: as for B1
B5: CB21-470 (antibody, V domains shown)
VH: EVQLVESGGGVVQPGRSLRLSCAASGFTFNSYGMHWVRQAPGKGLEWVAVLWYDGINKNYADSVKGRFAISRDNSKNTLYLQMNSLRVEDTAVYYCVRVQGDYWGQGTLVTVSS
VL: DIQMTQSPSSLSASVGDRVTITCRASQGIRNDLTWYQQKPGKAPKRLIYDTSSLQSGVPSRFSGSRSGTEFTLTISSLQPEDFASYFCLQHNSYPFTFGQGTKLEIK
notes: as for B1
B6: CB21-502 (antibody, V domains shown)
VH: EVQLVESGGGVVQPGRSLRLSCAASGFTFSSYGMHWVRQAPGKGLEWVAVLWYDGINKNYVDSVKGRFAISRDNSKNTLYLQMNSLRVEDTAVYFCVRVQGDYWGQGTLVTVSS
VL: DIQMTQSPSSLSASVGDRVTITCRASQGIRNDLTWYQQKPGKAPKRLIYDTSSLQSGVPSRFSGSGSGTDFTLTISSLQPEDFASYFCLQHNIYPFTFGQGTKLEIK
notes: as for B1
B7: CB21-522 (antibody, V domains shown)
VH: EVQLVQSGAEVKKPGASVKVSCKASGYTFTGYFIHWVRQAPGQGLEWMGWINPNSGGTYYAQEFQGRVTMTRDTSISTAYMELIRLRSDDSAVYYCARDISLVGDYWGQGTLVTVSS
VL: DVVMTQSPLSLPVTLGQPASISCRSSQSLVYSDGNTYLNWFQQRPGQSPRRLIYKVSNRDSGVPERFSGIGSGTDFTLEISRVEAEDVGVYYCMQGSHWPLTFGGGTKVEIK
notes: as for B1
B8: CB21-469 (antibody, V domains shown)
VH: EVQLVESGGGLVQPGGSLRLSCAASGFTFSSYAMNWVRQAPGKGLEWVSGISGNGGRIYYADSVKGRFTISRDNSKNTLYLQMNSLRVEDTAVYYCAKDLDVWGKGTTVTVSS
VL: DVVMTQTPLSSPVTLGQSASISCRSSQSLVHSDGNTYLNWLHQRPGQPPRLLIYKISNRFSGVPDRFSGSGAGTDFTLKISRVEAEDVGVYYCMQATQFPLTFGGGTKLEIK
notes: Cloned into knob/hole human Fc and light chain vectors; IgG and bispecific TCE formats were made; BLI used a monovalent antibody format
B9: CB21-513 (antibody, V domains shown)
VH: EVQLVDSGGGLVEPGGSLRLSCAASGFTFSSYAMTWVRQAPGKGLEWVSGISGSGGVTDYADSVKGRFTISRDNSKNTLYMQMNSLRAEDTAVYYCAKDLGVWGKGTTVTVSS
VL: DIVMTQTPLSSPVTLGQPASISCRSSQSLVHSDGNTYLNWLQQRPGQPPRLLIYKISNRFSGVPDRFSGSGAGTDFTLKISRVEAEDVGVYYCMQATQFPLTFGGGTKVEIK
notes: as for B1
B10: CB21-500 (antibody, V domains shown)
VH: EVQLVESGGGLVQPGGSLRLSCAASGFTFSSYAMNWVRQVPGKGLEGVSGMSGSGGRIYYADSVKGRFTMSRDNSKNMVYLQMNSLRAEDTALYYCAKDLDVWGKGTTVTVSS
VL: DVVMTQTPLSSPVTLGQPASISCRSSQNLVHSDGNTYLNWLQQRPGQPPRLLIYKISNRFSGVPDRFSGSGAGTDFTLKISRVEAEDVGVYYCMQATQFPLTFGGGTKLEIK
notes: as for B1
B11: CB21-498 (antibody, V domains shown)
VH: EMQLVESGGGLVQPGGSLRLSCAASGFTFSSYAMNWVRQAPGKGLECVSGISGNGGRIYYAESVKGRFTISRDNSKSTFYLQMNSLRAEDTAVYYCAKDLDVWGKGTTVTVSS
VL: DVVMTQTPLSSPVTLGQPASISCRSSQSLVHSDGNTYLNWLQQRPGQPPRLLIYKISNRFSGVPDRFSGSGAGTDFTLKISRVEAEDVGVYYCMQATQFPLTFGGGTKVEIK
notes: as for B1
B12: CP1474 (heavy chain from CB21-498, light chain from CB21-500) (antibody, V domains shown)
VH: EMQLVESGGGLVQPGGSLRLSCAASGFTFSSYAMNWVRQAPGKGLECVSGISGNGGRIYYAESVKGRFTISRDNSKSTFYLQMNSLRAEDTAVYYCAKDLDVWGKGTTVTVSS
VL: DVVMTQTPLSSPVTLGQPASISCRSSQNLVHSDGNTYLNWLQQRPGQPPRLLIYKISNRFSGVPDRFSGSGAGTDFTLKISRVEAEDVGVYYCMQATQFPLTFGGGTKLEIK
notes: Chain-shuffled antibody
B13: CP1473 (heavy chain from CB21-498, light chain from CB21-469) (antibody, V domains shown)
VH: EMQLVESGGGLVQPGGSLRLSCAASGFTFSSYAMNWVRQAPGKGLECVSGISGNGGRIYYAESVKGRFTISRDNSKSTFYLQMNSLRAEDTAVYYCAKDLDVWGKGTTVTVSS
VL: DVVMTQTPLSSPVTLGQSASISCRSSQSLVHSDGNTYLNWLHQRPGQPPRLLIYKISNRFSGVPDRFSGSGAGTDFTLKISRVEAEDVGVYYCMQATQFPLTFGGGTKLEIK
notes: Chain-shuffled antibody
B14: CP1481 (heavy chain from CB21-513, light chain from CB21-500) (antibody, V domains shown)
VH: EVQLVDSGGGLVEPGGSLRLSCAASGFTFSSYAMTWVRQAPGKGLEWVSGISGSGGVTDYADSVKGRFTISRDNSKNTLYMQMNSLRAEDTAVYYCAKDLGVWGKGTTVTVSS
VL: DVVMTQTPLSSPVTLGQPASISCRSSQNLVHSDGNTYLNWLQQRPGQPPRLLIYKISNRFSGVPDRFSGSGAGTDFTLKISRVEAEDVGVYYCMQATQFPLTFGGGTKLEIK
notes: Chain-shuffled antibody
B15: CP1476 (heavy chain from CB21-500, light chain from CB21-469) (antibody, V domains shown)
VH: EVQLVESGGGLVQPGGSLRLSCAASGFTFSSYAMNWVRQVPGKGLEGVSGMSGSGGRIYYADSVKGRFTMSRDNSKNMVYLQMNSLRAEDTALYYCAKDLDVWGKGTTVTVSS
VL: DVVMTQTPLSSPVTLGQSASISCRSSQSLVHSDGNTYLNWLHQRPGQPPRLLIYKISNRFSGVPDRFSGSGAGTDFTLKISRVEAEDVGVYYCMQATQFPLTFGGGTKLEIK
notes: Chain-shuffled antibody
B16: CP1475 (heavy chain from CB21-498, light chain from CB21-513) (antibody, V domains shown)
VH: EMQLVESGGGLVQPGGSLRLSCAASGFTFSSYAMNWVRQAPGKGLECVSGISGNGGRIYYAESVKGRFTISRDNSKSTFYLQMNSLRAEDTAVYYCAKDLDVWGKGTTVTVSS
VL: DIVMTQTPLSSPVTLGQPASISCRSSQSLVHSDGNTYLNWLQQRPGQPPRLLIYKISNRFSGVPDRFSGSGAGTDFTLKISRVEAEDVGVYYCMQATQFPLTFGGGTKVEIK
notes: Chain-shuffled antibody
B17: CP1471 (heavy chain from CB21-469, light chain from CB21-500) (antibody, V domains shown)
VH: EVQLVESGGGLVQPGGSLRLSCAASGFTFSSYAMNWVRQAPGKGLEWVSGISGNGGRIYYADSVKGRFTISRDNSKNTLYLQMNSLRVEDTAVYYCAKDLDVWGKGTTVTVSS
VL: DVVMTQTPLSSPVTLGQPASISCRSSQNLVHSDGNTYLNWLQQRPGQPPRLLIYKISNRFSGVPDRFSGSGAGTDFTLKISRVEAEDVGVYYCMQATQFPLTFGGGTKLEIK
notes: Chain-shuffled antibody
B18: CP1479 (heavy chain from CB21-513, light chain from CB21-469) (antibody, V domains shown)
VH: EVQLVDSGGGLVEPGGSLRLSCAASGFTFSSYAMTWVRQAPGKGLEWVSGISGSGGVTDYADSVKGRFTISRDNSKNTLYMQMNSLRAEDTAVYYCAKDLGVWGKGTTVTVSS
VL: DVVMTQTPLSSPVTLGQSASISCRSSQSLVHSDGNTYLNWLHQRPGQPPRLLIYKISNRFSGVPDRFSGSGAGTDFTLKISRVEAEDVGVYYCMQATQFPLTFGGGTKLEIK
notes: Chain-shuffled antibody
B19: CP1478 (heavy chain from CB21-500, light chain from CB21-513) (antibody, V domains shown)
VH: EVQLVESGGGLVQPGGSLRLSCAASGFTFSSYAMNWVRQVPGKGLEGVSGMSGSGGRIYYADSVKGRFTMSRDNSKNMVYLQMNSLRAEDTALYYCAKDLDVWGKGTTVTVSS
VL: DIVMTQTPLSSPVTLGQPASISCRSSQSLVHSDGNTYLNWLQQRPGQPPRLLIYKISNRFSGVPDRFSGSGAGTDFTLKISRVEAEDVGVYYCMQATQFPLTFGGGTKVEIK
notes: Chain-shuffled antibody

Target: T1, LY6G6D cyclic peptide …
Assay: flow binding assay on cyclic-peptide beads

Question: Does B1 bind?
Answer: binds

Question: Does B2 bind?
Answer: binds

Question: Does B3 bind?
Answer: binds

Question: Does B4 bind?
Answer: binds

Question: Does B5 bind?
Answer: binds

Question: Does B6 bind?
Answer: binds

Question: Does B7 bind?
Answer: binds

Question: Does B8 bind?
Answer: binds

Question: Does B9 bind?
Answer: binds

Question: Does B10 bind?
Answer: binds

Question: Does B11 bind?
Answer: binds

Target: T2, Human LY6G6D ectodomain fused to mouse …
Assay: BLI, chain shuffle round 1; antigen not named in the table (LY6G6D ectodomain as in Example 3)

Question: Which results are given for B12?
Answer: Kd: 0.699 nM; koff: 9.87e-05 s⁻¹; kon: 141000 M⁻¹ s⁻¹

Question: With B13 as the binder, how does the Kd read?
Answer: 0.554 nM

Question: What about the koff of the same binder?
Answer: 8.4e-05 s⁻¹

Question: What about the kon of the same binder?
Answer: 152000 M⁻¹ s⁻¹

Question: What does the source list for B14?
Answer: Kd: 17.6 nM; koff: 0.000264 s⁻¹; kon: 15000 M⁻¹ s⁻¹

Question: With B15 as the binder, how does the Kd read?
Answer: 3.15 nM

Question: What about the koff of the same binder?
Answer: 0.000413 s⁻¹

Question: And the kon?
Answer: 131000 M⁻¹ s⁻¹

Question: What does the source list for B16?
Answer: Kd: 0.91 nM; koff: 0.000105 s⁻¹; kon: 116000 M⁻¹ s⁻¹

Question: What does the source list for B17?
Answer: Kd: 12.7 nM; koff: 0.0017 s⁻¹; kon: 134000 M⁻¹ s⁻¹

Question: How did the Kd turn out when B18 was run?
Answer: 16.5 nM

Question: And the koff?
Answer: 0.00053 s⁻¹

Question: And the kon?
Answer: 32200 M⁻¹ s⁻¹

Question: For B19, which Kd is on record?
Answer: 5.35 nM

Question: And the koff?
Answer: 0.000705 s⁻¹

Question: And the kon?
Answer: 132000 M⁻¹ s⁻¹
